Source: US20250282868A1 (ITEOS BELGIUM, published 2025)

Legend:
mouse TREM2 [1] = biological target: T1, mouse TREM2 (mouse, UniProt Q99NH8 19-227); assay: MFI on CT26 cells over-expressing mouse TREM2 and DAP12
T1 construct: whole, on cells
T1 sequence (looked up): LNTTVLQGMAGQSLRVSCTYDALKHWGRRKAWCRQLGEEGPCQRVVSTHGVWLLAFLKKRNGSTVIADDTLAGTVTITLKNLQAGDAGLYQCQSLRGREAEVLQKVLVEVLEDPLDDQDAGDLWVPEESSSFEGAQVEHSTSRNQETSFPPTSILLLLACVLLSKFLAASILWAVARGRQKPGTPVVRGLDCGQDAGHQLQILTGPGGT
Description: (§1) Cross-reactivity to mouse TREM2 was assessed using CT26 cells over-expressing mouse TREM2 and DAP12 (Table 23). Eight anti-TREM2 antibodies and both benchmark antibodies were considered cross-reactive to mouse TREM2 (MFI higher than isotype control and fold change of CT26-TREM2 over the CT26 Empty Vector higher than 5). The remaining anti-TREM2 antibodies were considered as being low to not cross-reactive (fold change less than 5). EOS006171 was not tested due to clear non-cross-reactivity preliminary data by octet (data not shown).

human TREM2 [2] = biological target: T2, human TREM2 (human, UniProt Q9NZC2 19-230); assay: flow cytometry, competition with LDL-Alexafluor-488 on CHO cells overexpressing human TREM2/DAP12
T2 construct: on THP-1 WT cells and M2a-like macrophages (endogenous) and on CHO or HEK293T cells overexpressing human TREM2 with DAP12; also called hTREM2
T2 sequence: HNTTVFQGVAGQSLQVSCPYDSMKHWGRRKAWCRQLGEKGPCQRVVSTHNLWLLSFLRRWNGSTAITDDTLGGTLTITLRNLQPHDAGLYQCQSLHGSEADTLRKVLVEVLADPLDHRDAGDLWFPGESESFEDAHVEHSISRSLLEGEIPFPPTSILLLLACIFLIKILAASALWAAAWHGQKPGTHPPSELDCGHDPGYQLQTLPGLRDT
Description: (§2) Exemplary anti-TREM2 antibodies were tested in order to characterize their ability to enter in competition with TREM2 ligand, LDL, on CHO overexpressing human TREM2/DAP12. Antibodies (dose response curves from 66.65 nM to 0.07 nM) were incubated for 30 min with cells in a soluble fashion, followed by an incubation with LDL coupled with Alexafluor-488 (at 1 μg/mL final) for 30 min. Finally, after 2 washes, cells were acquired on flow cytometer. The median MFI of Alexafluor-488 was used to plot the graphs. Benchmark antibody MOR044746 was used as positive control.

human TREM2 [3] = biological target: T2, human TREM2; assay: flow cytometry, M2a-like macrophages, dose-response
Description: (§3) M2a-like macrophages were produced in vitro from monocytes of healthy donors. Briefly, after PBMCs isolation from peripheral blood using Lymphoprep™ gradient, CD14+ cells were purified and seeded in presence of MCSF 50 ng/ml for 6 days. Macrophages were then cultured with IL-13 and IL-4 at a concentration of 20 ng/ml for two additional days and then used for a cell-based binding assay.
(§4) M2a-like macrophages were incubated with anti-TREM2 antibodies (dose-response curve with 11 concentrations from 10 μg/ml to 0.0001 μg/ml) for 30 min at 4° C. After washing, bound antibodies were detected with a secondary anti-human IgG Fc PE-labelled for 30 min at 4° C. Fluorescence intensity was measured by flow cytometry. Equilibrium dissociation constant (kD) was then calculated for each antibody using median MFI normalized over isotype control.

human TREM2 [4] = biological target: T2, human TREM2; assay: cell-based or functional assay
mouse TREM2 [5] = biological target: T1, mouse TREM2; assay: MFI on CT26 cells over-expressing mouse TREM2 and DAP12 vs CT26 empty vector
Description: as §1

cynomolgus TREM2 [6] = biological target: T3, cynomolgus TREM2 (cynomolgus, UniProt A0A2K5UY34 49-260); assay: MFI on CHO cells over-expressing cynoTREM2-DAP12 vs CHO empty vector
T3 construct: also called cynoTREM2; cTREM2
T3 sequence: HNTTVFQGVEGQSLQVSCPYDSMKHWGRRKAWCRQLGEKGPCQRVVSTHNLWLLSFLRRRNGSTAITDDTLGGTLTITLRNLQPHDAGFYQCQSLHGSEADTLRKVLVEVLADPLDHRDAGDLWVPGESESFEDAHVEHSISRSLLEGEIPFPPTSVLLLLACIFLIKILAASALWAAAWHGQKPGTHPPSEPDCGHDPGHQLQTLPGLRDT
Description: (§5) Cross-reactivity of anti-TREM2 antibodies to cynomolgus TREM2 (cynoTREM2) was assessed using CHO over-expressing cynoTREM2-DAP12 (Table 22). Benchmark antibodies, AB52 and PN-37012, were examined for comparison.

human TREM2 [7] = biological target: T2, human TREM2; assay: cell-based or functional assay; remark: listed apart in the source
mouse TREM2 [8] = biological target: T1, mouse TREM2; assay: MFI on CT26 cells over-expressing mouse TREM2 and DAP12; column 'Considered cross-reactive'
Description: as §1

cynomolgus TREM2 [9] = biological target: T3, cynomolgus TREM2; assay: MFI on CHO cells over-expressing cynoTREM2-DAP12
Description: as §5

human TREM2 [10] = biological target: T2, human TREM2; assay: flow cytometry, THP-1 WT vs THP-1 TREM2 KO cells, 10 ug/ml
Description: (§6) In order to test specificity of selected antibodies to TREM2, binding was tested by flow cytometry on THP-1 TREM2 KO (clone, produced using CRISPR technology in house) and on THP-1 WT. Cells were incubated with selected anti-TREM2 antibodies (final concentration of 10 μg/ml) for 30 min at 4° C. After washing, bound antibodies were detected with a secondary anti-human IgG Fc PE-labelled for 30 min at 4° C. Fluorescence intensity was measured by flow cytometry.

human TREM2 [11] = biological target: T2, human TREM2; assay: flow cytometry, THP-1 WT cells, 10 ug/ml
Description: as §6

human TREM2 [12] = biological target: T2, human TREM2; assay: flow cytometry, M2a-like macrophages
Description: as §3, §4

human TREM2 [13] = biological target: T2, human TREM2; assay: flow cytometry, competition with LDL-Alexafluor-488 on CHO cells overexpressing human TREM2/DAP12; only 1 value generated
Description: as §2

Row | Binder | Binding to CT26-TREM2 MFI (mouse TREM2 [1]) [MFI] | IC50 (human TREM2 [2]) [pM] | Kd (human TREM2 [3]) [pM] | Stabilization ratio (Mean of 2 replicates) (human TREM2 [4]) [ratio] | MFI Fold change (CT26-TREM2 over CT26-EV) (mouse TREM2 [5]) [fold] | MFI Fold change (CHO-cTREM2 over CHO-EV) (cynomolgus TREM2 [6]) [fold] | Fold over isotype control at 66 nM (human TREM2 [7]) [fold] | binding result (mouse TREM2 [8]) | Binding to CHO-cTREM2 MFI (cynomolgus TREM2 [9]) [MFI] | MFI Fold change (THP-1 WT over THP-1 TREM2 KO) (human TREM2 [10]) [fold] | Fold over isotype control THP1 WT (human TREM2 [11]) [fold] | Fold over isotype (human TREM2 [12]) [fold] | IC50 (human TREM2 [13]) [pM] | pSYK/TotSYK EC50 (nM) (human TREM2 [7])
1 | EOS006165 (antibody, V domains shown) VH: QVQLVQSGAEVKKPGSSVKVSCKASGGTFSSYAISWVRQAPGQGLEWMGGIIPISGTANYAQKFQGRVTITADESTSTAYMELSSLRSEDTAVYYCARTQEYTAFDIWGQGTMVTVSS VL: EIVLTQSPATLSLSPGERATLSCRASQSVSSYLAWFQQKPGQAPRLLIYDASNRATGIPARFSGSGSGTDFTLTISSLEPEDFAVYYCQQDYHWPITFGGGTKVEIK | 649 | 5290 | 410 | 0.54 | 2.3 | 189 | 1.03 | no binding (tested: fold change less than 5) | 8500 | 2.5 | 1.7 | 2.2 | – | –
2 | EOS004283 (antibody, human IgG1, kappa, V domains shown) VH: QVQLVQSGAEVKKPGSSVKVSCKASGGTFAQYAISWVRQAPGQGLEWMGVIIPDSGTANYAQKFQGRVTITADESTSTAYMELSSLRSEDTAVYYCARTQENTIFDIWGQGTLVTVSS VL: EIVLTQSPATLSLSPGERATLSCRASQSVSSYLAWFQQKPGQAPRLLIYDASNRATGIPARFSGSGSGTDFTLTISSLEPEDFAVYYCQQDYEWPITFGGGTKVEIKR | – | – | – | – | – | – | 0.267 | – | – | – | – | – | 138 | –
3 | EOS006172 (antibody, V domains shown) VH: QVQLVQSGAEVKKPGSSVKVSCKASGGTFSSYAISWVRQAPGQGLEWMGGIIPISGTANYAQKFQGRVTITADESTSTAYMELSSLRSEDTAVYYCARTQEYTLFDIWGQGTMVTVSS VL: EIVLTQSPATLSLSPGERATLSCRASQSVSSYLAWFQQKPGQAPRLLIYDASNRATGIPARFSGSGSGTDFTLTISSLEPEDFAVYYCQQDFHWPITFGGGTKVEIK | 1660 | 115 | 90 | 0.46 | 4.9 | 418 | 0.59 | no binding (tested: fold change less than 5) | 17200 | 8.9 | 8.7 | 9.8 | – | –
4 | EOS006162 (antibody, V domains shown) VH: QVQLVQSGAEVKKPGSSVKVSCKASGGTFSSYAISWVRQAPGQGLEWMGGIIPISGTANYAQKFQGRVTITADESTSTAYMELSSLRSEDTAVYYCARTQEYTLFDSWGQGTMVTVSS VL: EIVLTQSPATLSLSPGERATLSCRASQSVSSYLAWFQQKPGQAPRLLIYDASNRATGIPARFSGSGSGTDFTLTISSLEPEDFAVYYCQQDYHWPITFGGGTKVEIK | 2000 | 116 | 130 | 0.4 | 6.4 | 393 | 0.785 | no binding | 17100 | 11 | 9.9 | 10.8 | – | –
5 | EOS006167 (antibody, V domains shown) VH: not shown VL: EIVLTQSPGTLSLSPGERATLSCRASQSVSSSYLAWYQQKPGQAPRLLIYGASSRATGIPDRFSGSGSGTDFTLTISRLEPEDFAVYYCQQYDDVPYTFGGGTKVEIK | 2060 | – | 10200 | 0.82 | 4.7 | 128 | 1.57 | no binding (tested: fold change less than 5) | 7220 | 2.2 | 2.1 | 1.6 | – | 49.9
6 | EOS006168 (antibody, V domains shown) VH: not shown VL: EIVLTQSPGTLSLSPGERATLSCRASQSVSSSFLAWYQQKPGQAPRLLIYGASSRATGIPDRFSGSGSGTDFTLTISRLEPEDFAVYYCQQYYSPPITFGGGTKVEIK | 655 | – | 2990 | 0.8 | 1.6 | 3.3 | 1.99 | no binding (tested: fold change less than 5) | 194 | 2.3 | 3 | 1.9 | – | 96
